# Target: GST-CjWRKY1 (Coptis japonica, UniProt A0ZT25 1-185)
# Test: EMSA; poly(dI-dC) 0.05 ug/ul; 3 ug protein, 20 fmol probe; EMSA: 1x LightShift binding buffer, 1 mM MgCl2, 0.5 mM EDTA, 0.05 ug/ul poly(dI-dC), 20 min at 4 C; pH not stated
# Settings: protein: recombinant; tags: GST (N-terminal, pGEX-6P-1); label: biotin (sense and antisense oligonucleotides)
# Chain of GST-CjWRKY1 (A0ZT25 entry or part of it): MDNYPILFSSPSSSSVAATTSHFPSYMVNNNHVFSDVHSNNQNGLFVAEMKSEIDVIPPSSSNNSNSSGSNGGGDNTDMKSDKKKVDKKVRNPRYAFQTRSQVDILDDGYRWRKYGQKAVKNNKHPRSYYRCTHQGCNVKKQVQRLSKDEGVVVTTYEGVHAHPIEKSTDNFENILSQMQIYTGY
binder,measurement,value
3x W-box probe (W2 of CYP80B2 promoter) (dsDNA) DNA 1: CTGCTGACTAGCTGACTAGCTGACTAGATGG DNA 2: CCATCTAGTCAGCTAGTCAGCTAGTCAGCAG,binding result,binds
